Assay results published in patent EP4435105.

B1: 4A2 (antibody, V domains shown)
VH: QVQLVQSGTEVKKPGASVKVSCKASGYTFTNYDINWVRQATGQGLEWMGWMHPNSGNTGYAQKFQGRVTLTRDTSISTAYMELSSLRSEDTAVYYCASSSGWYYFDYWGQGTLVTVSS
VL: DIVMTQSPDSLAVSLGERATINCKSSQSILHSSNNNNYLAWFQQKPGQPPKLLLYWASTRESGVPDRFSGSGSGTDFTLTISSLQPEDVAVYYCQQYYNTPVTFGPGTKVGIK
B2: 22G5 (antibody, V domains shown)
VH: EVQLLESGGGLVQPGGSLRLSCAASGFTFSSYAMNWVRQAPGMGLEWVSVISRSGGYTYYADSVKGRFTISRDNSKNTLYLQMNSLRAEDTAVYYCASRLAVAGSEAFDIWGQGTLVTVSS
VL: DIQMTQSPSSLSASVGDRVTITCRASQNISSYLNWYQQKQGKAPKLLIYAASSLQNGVPSRFSGRGSGTDFTLTISSLQPEDFATYYCQQSYRTPLFTFGPGTKVDFK
B3: 194C10 (antibody, V domains shown)
VH: QVQLQQWGAGLLKPSETLSLTCAVSGGSFRYYYWSWIRQPPGKGLEWFGEINHSGSTNYNPSLKSRVTISIDTSKNQFSLKLRSVTAADTAVYYCARDYGAFDIWGQGTMVTVSS
VL: EIVLTQSPGTLSLSPGERATLSCRASPSVNSGYLAWYQQKPGQTPRLLIFGASSRATGIPDRFSASGSGADFTLTISRLEPEDFAVYFCQQYESSPWTFGQGTKVEIK
B4: 176H4 (antibody, V domains shown)
VH: QVQLVESGGGVVQPGRSLRLSCAASGFTFSSYGMHWVRQAPGKGLEWVAIIWYDGSYKYYADSVKGRFTISRDNSKNTLYLQMSSLRAEDTAVYYCARDAHDFWSGYFAYWGQGALVTVSS
VL: DIVMTQTPLSLSVTPGQPASISCKSSQSLLHGDGKTYLYWYLQKPGQPPQLLIYEVSNRFSGVPDRFSGSGSGTDFTLKISRVEAEDVGIYYCMQSIQIPWTFGQGTRVEIK
B5: 5E5 (antibody, V domains shown)
VH: QVQLVESGGGVVQPGRSLRLSCAASGFTFSNYVMHWVRQAPGKGLEWVAVIWYDGSNKYYADSVKGRFTISRDNSKNTLYLQMNSLRAEDTAVYYCTREVYSSGWYDYGMDVWGQGTTVTVSS
VL: DIQMTQSPSSLSASVGDRVTITCRASQGIRNDLGWYQQKPGKAPKRLIYAASSLQSGVPSRFSGSGSGTEFTLTISSLQPEDFATYYCLQHYSYPRTFGQGTKVEVK

Target: T1, human ASGR-1 (on CHO-S cells) (human, UniProt P07306)
T1 chain: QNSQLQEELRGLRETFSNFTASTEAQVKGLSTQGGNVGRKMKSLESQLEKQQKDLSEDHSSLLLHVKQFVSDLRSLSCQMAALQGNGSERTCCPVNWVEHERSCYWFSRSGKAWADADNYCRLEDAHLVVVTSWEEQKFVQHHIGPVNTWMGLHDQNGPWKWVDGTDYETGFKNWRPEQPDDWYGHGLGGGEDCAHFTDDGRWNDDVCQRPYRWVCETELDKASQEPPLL
Assay: competition, FACS, GalNAc-PAA
Binder B1 has an IC50 of 54 nM. With B2 the IC50 was 11 nM. B3 gave an IC50 of 87 nM. B4 showed an IC50 of 73 nM. In the case of B5, the IC50 is reported as over 200 nM.

Target: T1, human ASGR-1 (on CHO-S cells)
Assay: competition, FACS, asialofetuin
Binder B1 has an IC50 of 11 nM. B2 gave an IC50 of 3.4 nM. In the case of B3, the IC50 is reported as 30 nM. B4 was tested, and the IC50 was 59 nM. B5 showed an IC50 of 16 nM.
